US20260049134A1 (UNIVERSITY OF FLORIDA RESEARCH FOUNDATION, published 2026)

T1: GARS, endogenous in H929 multiple myeloma cells (human, UniProt P41250 37-739, limits assumed)
T1 construct: Native protein pulled down from H929 lysates; also called Glycyl-tRNA synthetase; GlyRS
T1 sequence: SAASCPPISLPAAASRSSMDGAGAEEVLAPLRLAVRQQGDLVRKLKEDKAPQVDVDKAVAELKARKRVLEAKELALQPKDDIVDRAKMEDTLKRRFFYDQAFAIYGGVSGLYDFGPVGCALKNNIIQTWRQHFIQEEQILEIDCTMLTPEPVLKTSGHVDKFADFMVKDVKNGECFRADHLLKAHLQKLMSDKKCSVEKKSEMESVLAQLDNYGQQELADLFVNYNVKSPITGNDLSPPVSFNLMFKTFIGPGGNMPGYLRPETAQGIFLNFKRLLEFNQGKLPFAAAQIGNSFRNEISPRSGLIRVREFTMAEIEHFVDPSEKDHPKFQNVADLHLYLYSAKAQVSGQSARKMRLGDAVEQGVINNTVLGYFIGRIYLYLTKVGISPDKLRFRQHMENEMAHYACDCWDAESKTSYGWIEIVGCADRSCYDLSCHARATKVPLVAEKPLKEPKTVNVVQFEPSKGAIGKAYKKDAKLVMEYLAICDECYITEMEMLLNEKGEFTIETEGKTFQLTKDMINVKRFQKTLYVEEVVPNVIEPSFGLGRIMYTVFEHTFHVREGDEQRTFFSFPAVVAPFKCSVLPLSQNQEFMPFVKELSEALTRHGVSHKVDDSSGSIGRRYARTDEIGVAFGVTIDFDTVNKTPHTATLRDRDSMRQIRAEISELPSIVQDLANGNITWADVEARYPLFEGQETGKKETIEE

T2: SLAMF7
T2 construct: also called SLAMF7-StrepTag; not shown: StrepTag and any linker
T2 chain: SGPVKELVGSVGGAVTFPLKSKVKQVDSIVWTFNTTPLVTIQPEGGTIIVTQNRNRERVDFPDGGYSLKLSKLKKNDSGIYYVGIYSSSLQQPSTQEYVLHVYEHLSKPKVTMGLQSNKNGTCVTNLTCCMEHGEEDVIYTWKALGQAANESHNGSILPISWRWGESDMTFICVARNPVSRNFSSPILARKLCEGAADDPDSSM

T3: HHLA2
T3 construct: also called HHLA2-Fc (R&D Systems); B7-H7; not shown: Fc part and any linker
T3 chain: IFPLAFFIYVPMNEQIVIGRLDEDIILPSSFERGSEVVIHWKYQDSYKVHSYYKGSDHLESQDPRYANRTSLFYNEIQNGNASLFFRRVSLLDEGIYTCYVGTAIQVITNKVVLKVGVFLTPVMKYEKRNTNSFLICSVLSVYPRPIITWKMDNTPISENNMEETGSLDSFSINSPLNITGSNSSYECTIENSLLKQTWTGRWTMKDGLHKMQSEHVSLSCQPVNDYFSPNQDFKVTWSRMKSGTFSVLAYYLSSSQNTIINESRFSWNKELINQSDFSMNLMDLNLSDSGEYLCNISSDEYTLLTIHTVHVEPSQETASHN

T4: IL13RA1
T4 construct: also called IL13RA1-Fc-His (R&D Systems)
T4 chain: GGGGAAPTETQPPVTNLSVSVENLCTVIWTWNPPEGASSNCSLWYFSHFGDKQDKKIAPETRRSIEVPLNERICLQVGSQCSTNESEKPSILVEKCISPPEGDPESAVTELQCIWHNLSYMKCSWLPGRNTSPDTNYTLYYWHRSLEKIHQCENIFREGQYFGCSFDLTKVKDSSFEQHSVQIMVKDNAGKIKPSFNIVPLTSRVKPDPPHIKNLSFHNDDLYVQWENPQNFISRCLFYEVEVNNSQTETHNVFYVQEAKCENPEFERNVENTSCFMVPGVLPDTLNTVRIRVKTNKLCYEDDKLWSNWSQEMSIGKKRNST

T5: SELL
T5 construct: also called SELL-Fc-His (R&D Systems); L-Selectin
T5 chain: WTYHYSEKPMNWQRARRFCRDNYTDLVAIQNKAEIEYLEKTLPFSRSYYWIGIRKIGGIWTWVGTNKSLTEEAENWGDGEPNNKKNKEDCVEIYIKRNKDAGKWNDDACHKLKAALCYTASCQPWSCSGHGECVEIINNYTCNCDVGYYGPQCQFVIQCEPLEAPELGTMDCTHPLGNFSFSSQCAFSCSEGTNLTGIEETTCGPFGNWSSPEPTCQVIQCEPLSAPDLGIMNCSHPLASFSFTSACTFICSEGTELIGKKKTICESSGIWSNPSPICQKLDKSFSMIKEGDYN


Legend:
[1] = molecular target: T1, GARS, endogenous in H929 multiple …; test: flow cytometry, H929 + ICAM1 siRNA; None 455; surface target GARS putative
[2] = molecular target: T1, GARS, endogenous in H929 multiple …; test: flow cytometry, H929 + vehicle; None 2.74; surface target GARS putative
PTP4A3 = molecular target: T6, PTP4A3; test: ELISA on coated protein
T6 construct: also called His-PTP4A3 (R&D Systems)
T6 sequence (chain, as listed by the source limits assumed): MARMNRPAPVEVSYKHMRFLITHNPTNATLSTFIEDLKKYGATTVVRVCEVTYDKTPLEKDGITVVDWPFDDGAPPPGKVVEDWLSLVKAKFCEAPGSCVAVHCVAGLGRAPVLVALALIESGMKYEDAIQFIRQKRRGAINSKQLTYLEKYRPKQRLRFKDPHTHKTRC
Description: (§1) Recombinant purified ECDs (50-150 ng) of each putative target protein were coated, incubated with 150 ng of the indicated primary antibody, and binding was detected using a peroxidase-conjugated anti-human Fab secondary antibody. Heatmap represents averages of technical triplicates. (8B) Target validation via siRNA knockdown. H929 cells were transfected with siRNA pools targeting the putative antibody targets ICAM1, CADM1, and PTPRG. Cells were then subjected to cognate IgG binding analysis via flow cytometry. (NT, non-targeting siRNA).
(§2) ELISA ELISA was conducted as described previously. Briefly, 50-150 ng of antigen was coated overnight in half-area 96-well plates at 4° C., blocked with 3% BSA at 37° C. for 1 h, and 150 ng of chimeric rabbit/human IgG1 was added, incubating for 2 h at 37° C. […] After incubating at 37° C. for 15 min-1 h (depending on intensity of controls), data were acquired using a SpectraMax M5 plate reader (Molecular Devices).

SLAMF7 = molecular target: T2, SLAMF7; test: ELISA on coated protein
Description: as §1, §2

HHLA2 = molecular target: T3, HHLA2; test: ELISA on coated protein
Description: as §1, §2

IL13RA1 = molecular target: T4, IL13RA1; test: ELISA on coated protein
Description: as §1, §2

SELL = molecular target: T5, SELL; test: ELISA on coated protein
Description: as §1, §2

| Binder | mAb binding (MFI) [1] | Cells stained (%) [2] [%] | binding result (PTP4A3) | binding result (SLAMF7) | binding result (HHLA2) | binding result (IL13RA1) | binding result (SELL) |
| --- | --- | --- | --- | --- | --- | --- | --- |
| HW-16 chimeric rabbit-human IgG1 LA/LA/PG (antibody, V domains shown, Fc-silenced (L234A/L235A/P329G) IgG1, kappa; Alexa Fluor 647-labeled in single-step flow cytometry; Cluster C-45) VH: QSLEESGGRLVTPGTPLTLTCTASGFSLSSYAMSWVRQAPGKGLEWIGTMPTGGGTYYASWAKGRFTISKTSTTVDLQITSPTTEDTATYFCAKHWNIWGPGTLVTISS VL: DIVLTQTPSSTSTAVGDTVTINCRASQSIGRNLAWFQQKPGQPPKLLIYRASNLASGVPSRFKGSGSRTQFTLTISGVQREDAATYYCLGSYSSSDTAFGGGTELEILR | 48900 | 99.1 | – | – | – | – | – |
| HW-42 chimeric rabbit-human IgG1 LA/LA/PG (antibody, V domains shown, Fc-silenced (L234A/L235A/P329G) IgG1, lambda; Alexa Fluor 647-labeled in single-step flow cytometry; Cluster C-1) VH: QSVKESEGGLFKPADTLTLTCTVSGFSLSSNEISWVRQAPGEGLEYIGIIDTGGRAYYAVWARSRSTITRNTNLNTVTLKMTSLTAADTATYFCARGGVDTEWYAFSSWGPGTLVTVPS VL: SFVLTQPASVQVNLGQTVSLTCTADTLSRRYASWYQQKPGQAPVLLIFRDTSRPSGVPDRFSGSSSGDTATLTISGAQAGDEADYYCATSDGSGSNYQYVFGGGTQLTVTG | – | – | no binding (tested: 150 ng IgG1 per well) | no binding (tested: 150 ng IgG1 per well) | no binding (tested: 150 ng IgG1 per well) | no binding (tested: 150 ng IgG1 per well) | no binding (tested: 150 ng IgG1 per well) |

Second part, led by results:

| mAb binding (MFI) [1] | Cells stained (%) [2] [%] | Binder | binding result (PTP4A3) | binding result (SLAMF7) | binding result (HHLA2) | binding result (IL13RA1) | binding result (SELL) |
| --- | --- | --- | --- | --- | --- | --- | --- |
| 497000 | 99.5 | HW-56 chimeric rabbit-human IgG1 LA/LA/PG (antibody, V domains shown, Fc-silenced (L234A/L235A/P329G) IgG1, kappa; Alexa Fluor 647-labeled in single-step flow cytometry; Cluster C-45) VH: QSVKESEGGLFKPTDTLTLTCTASGFTVSTNAVTWVRQAPGNGLEYIGTIGRSGSAYFASWAKRRSTLTRDINLNTVTLKMTSLTAADTATYFCVRGSPGYRTAISIWGPGTLVTISS VL: AVMTQTPSSTSAAVEGTVTINCQASQSISNRLSWFQQKPGQPPKLLIYQASTLASGVPSRFKGSGSGTEFTLTISGVQREDAATYYCLGSYSSSDASFGGGTKLEIKR | – | – | – | – | – |
| 640000 | 99.7 | HW-81 chimeric rabbit-human IgG1 LA/LA/PG (antibody, V domains shown, Fc-silenced (L234A/L235A/P329G) IgG1, lambda; Alexa Fluor 647-labeled in single-step flow cytometry; Cluster C-45) VH: QKQLVESGGGLVTPGGTLTLTCTVSGFSLSSNGVSWVRQAPGKGLEYIGLIRSIGSTYYATWAKGRFTISKTSTTVDLKITSPTTEDTATYFCARGGYRNGFKLWGPGTLVTVSS VL: QPVLTQSPSVSAALGASAKLTCTLSSAHKTYYIEWYQQQHPGKAPRYLMQLQSDGSYTKGTGVPDRFSGSSSGADRYLIISSVQAEDEADYICGVIDSAVYVFGGGTQLTVTG | – | – | – | – | – |
